Target: T1, CD38 on Ramos cells (human, UniProt P28907 1-300)
T1 construct: whole, on cells; also called CD38 expressing cells; Ramos target cells
Experiment: ADCC assay on Ramos cells (binding inferred from it)
Procedure: The ability of anti-CD38 antibodies to bind to CD38 expressing cells and promote functional activity was determined using an antibody-dependent cell-mediated cytotoxicity (ADCC) assay. In this assay, Ramos cells, a Burkitt's lymphoma cell line, were added to wells at 5×10³ cells per well. Test antibodies (C38A2 (“38-A2”), C38D8 (“38-D8”) and C38D4 (“38-D4”) and control IgG) were then added at 1 microgram per ml and incubated with the Ramos cells for 20 minutes at 37° C. After washing, the effector cells were added at different concentrations resulting in three effector-to-target ratios. The effector cells were purified natural killer (NK) cells that had been incubated overnight in the presence of IL-2 (100 U/ml). The assay was allowed to proceed for at least 4 hours after which time cytotoxicity was evaluated using a Promega Cyto-glo kit.

Row | Binder | binding result
1 | C38A2 (antibody, V domains shown, tested as an antibody beside an IgG matched control in the ADCC assay) VH: QVQLVESGGGLVKPGGSLRLSCAASGFTFSDDYMSWIRQAPGKGLEWVASVSNGRPTTYYADSVRGRFTISRDNAKNSLYLQMNSLRAEDTAVYYCAREDWGGEFTDWGRGTLVTVSS VL: QAGLTQPPSASGTSGQRVTISCSGSSSNIGINFVYWYQHLPGTAPKLLIYKNNQRPSGVPDRFSGSKSGNSASLAISGLRSEDEADYYCAAWDDSLSGYVFGSGTKVTVL | binds
2 | C38D8 (antibody, V domains shown, tested as an antibody beside an IgG matched control in the ADCC assay) VH: QVQLVESGGGVVQPGGSLRLSCAASGFIVSTNYVHWVRQAPGKGLEWVSGIYSDPYTSYAYSDSVKGRFTISRDMSKNTVYLQMNRLRAEDTAVYYCARETNTGFSNSWYLDFWGQGTLVTVSS VL: not shown | binds
